B1: TPR t1 (parent)
chain: GACCAAUCUGCCCUCAGAGCUCGAGAACAUCUUCGGAUGCAGAGGAGGCAGGCUUCGGUGGCGCGAUAGCGCCAACGUCCUCAACCUCCAAUGCAUCCCACCACAUGAUGAUGCCUGAAGAGCCUUGGUUUUUUG

Variants of: B1
Experiment: polymerase ribozyme fitness, log enrichment relative to wild type (log ratio); higher = more active; in vitro selection for triplet polymerase activity
In short: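 For each subunit of a heterodimeric triplet polymerase ribozyme, a mutant library was built by PCR and transcribed, then taken through a single in vitro selection round in triplicate. Selection involved annealing to a biotinylated primer, the partner subunit and triplets, incubation frozen at −7 °C, gel excision of extended constructs, capture on streptavidin beads and RT-PCR. Genotypes were retained after Illumina sequencing of inputs and outputs only with ≥10 input reads and ≥1 read in each output. Fitness is defined as the logarithm of a genotype's enrichment relative to wild-type enrichment, using inverse-variance-weighted averages across replicates, with the logarithm taken to base 2.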

Variant	polymerase ribozyme fitness (log ratio)
GACCAAUCUGCCCUUAGAGCUCGAGAACAUCUUCGGAUGCAGAGGAGGCAGGCUUCGGUGGCCCGAUAGCGCCAACGUCCUCAACCUCCAAUGCAUCCCACCACAUGAUGAUGCCUGAAGAGCCUUGGCUUUUUG [C15U G63C U129C]	-2
GACCAAUCUGCCCUUAGAGCUCGAGAACAUCCUCGGAUGCAGAGGAGGCAGGCUUCGGUGGCGCGAUAGCGCCAACGUCCUCAACCUCAAAUGCAUCCCACCACAUGAUGAUGCCUGAGGAGCCUUGCUUUUUUG [C15U U32C C89A A119G G128C]	-3.29
GACCAAUCUGCCCUUAGAGCUCGAGAACAUCUUCGGAUGCAGAGGAGGCAGGCUUCGGUGGCGCGAUAUCGCCAACGUCCUCAACCUCCAAUGCAUCCCACCACAUGAUGAUGCCUGAAGAGCCUUGGUUUUUUG [C15U G69U]	-1.38
GACCAAUCUGCCCUUAGAGCUCGAGAACAUCUUCGGAUGCAGAGGAGGCAGGCCUCGGUGGCGCGAUAGCGCUAACGUCCUCAACCUCCAAUGCAUCCCACCACAUGAUGAUACCUGAAGAGCGUUGGUUUUUUG [C15U U54C C73U G113A C124G]	-0.579
GACCAAUCUGCCCUUAGAGCUCGAGAACAUCUUCGGAUGCAGACGAGGCAGGCUUCGGUGGCGCGAUAGCGCCAACGUCCUCUACCUCCAAUGCAUCCCCCCACAUGAUGAUGCCUGAAGAGCCUUGGUUUUUUG [C15U G44C A83U A100C]	-3.3
GACCAAUCUGCCCUUAGAGCUCGAGAACAUCUUCGGAUGCAGAGGAGGCAGGCUUCGGUGGCACGAUAGCGCCAACGUCCUCAACCUCCAAUGCAUCCCACCACAUGAUGAUGCCUGAAGAGCCUUGGUUUUUUG [C15U G63A]	-2.04
GACCAAUCUGCCCUUAGAGCUCGAGAACAUCUUCGGAUGCACAGGAGGCAGGCUUCGGUGGCGCGAUAGCUCCAACGUCCUCAACCUCCAAUGCAUCCCACCACAUGAUGAUGCCUGAAGAGCCUUGGUUUUUUG [C15U G42C G71U]	-3.24
GACCAAUCUGCCCUUAGAGCUCGAGAACAUCUUCGGAUGCAGAGGAGGCAGGCUUCGGUGGCGCGAUAGCGCCAACGUCCUCAACCUCCAAUGCAUCCCACCACAUGAUGAUGACUGAAGAGCCUUGGUUUUUUG [C15U C114A]	-3.36
GACCAAUCUGCCCUUAGAGCUCGAGAACAUCUUCCGAUGCAGAGGAGGCAGGCUUCGGUGGCGCGAUAUCGCCAACGUCCUCAACCUCCAAUGCAUCCCACCACAUGAUGAUGCCUGAAGAGCCUUGGUUUUUUG [C15U G35C G69U]	-2.64
GACCAAUCUGCCCUUAGAGCUCGAGAACAUCUUCGGAUGCAGAGGAGCCAGGCUUCGGUGGCGCGAUAGCGGCAACGUCCUCAACCUCCAAUGCAUCCCACCACAUGAUGAAGCCUGAAGAGCCUUGGUUUUUUG [C15U G48C C72G U112A]	-0.505
GACCAAUCUGCCCUUAGAGCUCGAGAACAUCUUCGGAUGCAGAGGAGGCAGGCUUCGGUGACGCGAUAGCGCCAACGUCCUCAACCUCAAAUGCAUCCCACCACAUGAUGUUGCCUGAAGAGCCUUGGUUUUUUG [C15U G61A C89A A111U]	-6.53
GACCAAUCUGCCCUUAGAGCUCGAGAACAUCUUCGGAUGCAGAGGAGGCAGGCCUCGGUGGCGCGAUAGCGUCAACGUCCUCAACCUCCAAUGCAUCCCACCACAUGAUGAUGCCUGAAGAGCCUUGGUUUUUUG [C15U U54C C72U]	-1.39
GACCAAUCUGCCCUUAGAGCUCGAGAACAUCUUCGGAUGCAGAGGAGGCAGGCUUCGGUGGCACGAUAGCGCCAACGUACUCAACCUCCAAUGCAUCCCACCACAUGAUGAGGCCUGAAGAGCCUUGGUUUUUUG [C15U G63A C79A U112G]	-5.66
GACCAAUCUGCCCUUAGAGCUCGAGAACAUCUUCGGAUGCAGAGGAGGCAGGCUUCGGUGGCUCGAUAGCGCCAACGACCUCAACCUCCAAUGCAUCCCACCACAUGAUGAUGCCUGAAGAGCCUUCGUUUUUUG [C15U G63U U78A G127C]	-4.1
GACCAAUCUGCCCUUAGAGCUCGAGAACAUCUUCGGAUGCAGAGGAGGCAGGCUUCUGUGGCGCGAUAGCGGCAACGUCCGCAACCUCCAAUGCAUCCCACCACAUGAUGAUGCCUGAAGAGCCUUGGUUUUUUG [C15U G57U C72G U81G]	-2.79
GACCAAUCUGCCCUUAGAGCUCGAGAACAUCUUCGGAUGCACAGGUGGCAGGCUUCGGUGGCGCGAUAGCGCCAACGUCCUCAACCUCCAAUGCAUCCCACCACAUGAUGAUGCCUGAAGAGCCUUGGUUUUUUG [C15U G42C A46U]	-3.23
GACCAAUCUGCCCUUAGAGCUCGAGAACAUCUUCGGAUGCAGAGGAGGCAGACUUCGAUGGCGCGAUAGCGCCAACGUCCUCAACCUUCAAUGCAUCCCACCACAUGAUGAUGCUUGAAGAGCCUUGGUUUUUUG [C15U G52A G58A C88U C115U]	-4.34
GACCAAUCUGCCCUUAGAGCUCGAGAACAUCUUCGGAUGCACAGGAGGCAGGCUUCGGUGGCGCGAUAGCGCCAACGUCCUCAACCUCCAAUGCAUCCCACCACAUGAUGAUGCCUGAAGAGCCUUGGUUUUUUG [C15U G42C]	-2.79
GACCAAUCUGCCCUUAGAGCUCGAGAACAUCUUCGGAUGCAGAAGAAGCAGGCUUCGGUGGCGCGAUAGCGCCAACGUCCUCAACCUCCAAUGCAUCCCACCACUUGAUGAUGCCUGAAGAGCCUUGGUUUUUUG [C15U G44A G47A A105U]	-5.8
GACCAAUCUGCCCUUAGAGCUCGAGAACAUCUUCGGAUGCAGAGGAGGCAGACUUCGGUGGCGCGAUAGCGCCAACGUCCUCAACCUCCAGUGCAUCCCACCACAUGAUGAUGCCUGAAGAGCCUUGGUUUUUUG [C15U G52A A91G]	-2.95
GACCAAUCUGCCCUUAGAGCUCGAGAACAUCUUCGGAUCCAGAGGAGGCAGGCUUCGGUGGCGCGAUAGCACCAACGUCCUCAACCUCCAAUGCAUCCCACCACAUGAUGAUGCCUGAAGAGCCUUGGUUUUUUG [C15U G39C G71A]	-2.36

Source: the RNAGym collection of RNA variant scans (doi:10.1073/pnas.2313332121)
